Columns and labels:
MMP-14 [1] = molecular target: T1, MMP-14 (Homo sapiens, UniProt P50281); assay: Selection and phage ELISA screening of anti-MMP-14 Fabs; assay type: binding; settings: Fab from FAB310 phage display library
Outline: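 Phage ELISA screened 95 clones from each of rounds 2 and 3 against biotinylated MMP-14 (1 μg/ml) captured on streptavidin, in TRIS/CaCl2/NaCl pH 7.5. The clones came from Fab library selections on biotinylated MMP-14, either free or TIMP-2-complexed (500 nM round 1, 100 nM later rounds). Elution used 2.5 μM TIMP-2 followed by TEA.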

MMP-14 [2] = molecular target: T1, MMP-14; assay: IC50 for MMP-14 inhibition by Fabs and IgGs; assay type: biochemical; settings: Fab
Experimental: MMP-14 binding proteins can be characterized in assays that measure their modulatory activity toward MMP-14 or fragments thereof in vitro or in vivo. For example, MMP-14 can be combined with a substrate such as Mca-Pro-Leu-Ala-Cys(Mob)-Trp-Ala-Arg-Dap(Dnp)-NH2 under assay conditions permitting cleavage by MMP-14. The assay is performed in the absence of the MMP-14 binding protein, and in the presence of increasing concentrations of the MMP-14 binding protein. The concentration of binding protein at which 50% of the MMP-14 activity (e.g., binding to the substrate) is inhibited is the IC50 value (Inhibitory Concentration 50%) or EC50 (Effective Concentration 50%) value for that binding protein.

[3] = system: Tumor Cells Expressing MMP-14 (HT-1080, LNCaP, MDA-MB-231, PC3); assay: Binding of IgGs to tumor cells, immunocytochemistry and flow cytometry; assay type: cell-based, human; settings: ICC versus flow cytometry
Experimental: The ability of twelve biotinylated-MMP-14 binding IgGs to bind to tumor cells expressing MMP-14 was evaluated using both immunocytochemistry (ICC) and flow cytometry. The cell lines tested were HT-1080 (a human fibrosarcoma cell line), LNCaP (human, prostate, carcinoma), MDA-MB-231 (human, breast, adenocarcinoma), or PC3 (Human prostatic cancer cells) cells. MMP-14 is expressed on HT-1080 cells (Cancer Res. (2005) 65(23):10959-69.). MMP-14 is expressed on PC-3 cells (Oncol Rep. (2006) 15(1):199-206). LNCaP express MMP-14 (Endocrinology (2003) 144(5):1656-1663) at a relatively low level. […] MMP-14 is expressed by MDA-MB-231 cells (Int J Cancer. (2005) 114(4):544-554.).
Cells (2×10^5) were cultivated on cell culture slides in complete medium. At confluency, cells were washed with PBS and fixed with 4% paraformaldehyde for 30 minutes at room temperature. Endogenous peroxidases were blocked with 3% hydrogen peroxide for 20 minutes. Nonspecific binding sites were blocked by incubation with 10% heat inactivated human serum 10% normal rabbit serum for 30 minutes at room temperature. Cells were then incubated with biotinylated or non-biotinylated MMP-14 binding proteins at 10 μg/ml for 2 hours at room temperature. […] Binding was detected with the substrate AEC+(25 minutes at room temperature in the dark). […]

MMP-16 [4] = molecular target: T2, MMP-16 (Homo sapiens, UniProt P51512); assay: Cross-reactivity of Fabs and IgGs with MMP-16 (Example 8); assay type: biochemical; set-up: key to MMP-16 (cross-reactivity, class symbol): X: Does not inhibit MMP-16 at [I] = 100 nM level; settings: 5 nM MMP16, 30 minutes at 30° C., 10 μM substrate
Experimental: For the studies summarized in Tables 13 and 14, 100 nM anti-MMP-14 Fab/IgG were incubated with 5 nM MMP16 for 30 minutes at 30° C., 10 μM of substrate was added, and the MMP-16 activity was measured.

MMP-16 [5] = molecular target: T2, MMP-16; assay: Cross-reactivity of Fabs with MMP-16 (Example 9); assay type: biochemical; set-up: key: X: Do not inhibit MMP-16 or MMP-24 at [I] = 100 nM level; Y: partially inhibit at [I] = 100 nM level; settings: Fab, 100 nM final inhibitor concentration, 5 nM MMP-16
Experimental: (§1) For the studies summarized in Table 15, 1 μM of anti-MMP-14 Fab/IgG (100 nM final inhibitor concentration) were incubated with 5 nM of MMP-16 or 5 nM of MMP-24 for 30 minutes at 30° C., 10 μM of substrate was added, and the MMP-16 activity was measured.

MMP-24 [6] = molecular target: T3, MMP-24 (Homo sapiens, UniProt Q9Y5R2); assay: Cross-reactivity of Fabs with MMP-24 (Example 9); assay type: biochemical; set-up: key to MMP-24 (cross-reactivity, class symbol): X: Do not inhibit MMP-16 or MMP-24 at [I] = 100 nM level; Y: partially inhibit at [I] = 100 nM level; settings: Fab, 100 nM final inhibitor concentration; 5 nM MMP-24
Experimental: as §1

MMP-16 [7] = molecular target: T2, MMP-16; assay: Cross-reactivity of anti-MMP-14 IgGs, enzymatic activity: MMP-16; assay type: biochemical; settings: 1 μM anti-MMP-14 IgG
Experimental: (§2) The cross-reactivity of exemplary anti-MMP-14 IgGs and Fabs with other human MMPs and TACE (TNF-alpha converting enzyme) was examined. MMP and TACE enzymatic activity was monitored in the absence and presence of 1 μM anti-MMP-14 IgG antibody. Inhibition (Y) of activity ranged from approximately 50-80% of the reaction rate observed in the absence of antibody. “X” indicates no inhibition was observed. Cross-reactivity was not determined for MMP-17 because protein activity could not be detected.
(§3) For the studies summarized in Table 12, six anti-MMP-14 IgGs were selected for cross-reactivity testings: M0043-G02, M0040-A06, M0037-D01, M037-C09, M0038-F01, M0033-H07.

MMP-24 [8] = molecular target: T3, MMP-24; assay: Cross-reactivity of anti-MMP-14 IgGs, enzymatic activity: MMP-24; assay type: biochemical; settings: 1 μM anti-MMP-14 IgG
Experimental: as §2, §3

[9] = system: activation of pro-MMP-2 by MMP-14 in PMA-activated HT-1080 cells; assay: Gelatin zymogram, pro-MMP-2 activation in HT-1080 cells; assay type: cell-based, human; settings: gelatin zymography of conditioned media after 3 days; antibodies 10 μg/ml, GM6001 10 μM
Experimental: The ability of anti-MMP-14 IgGs to inhibit the activation of pro-MMP-2 by MMP-14 was examined by gelatin zymogram experiments performed with PMA-activated HT-1080 cells. M0033-H07 and M0038-F01 were tested for their ability to inhibit MMP-14 in this assay. HT1080 cells (well-known to express MMP-14 and MMP-2) were seeded at 5×10^5 cells/well at Day 0. […] HT-1080 cells cultured in the presence of 20 ng/ml of PMA were used as a positive control.
After 3 days of incubation, conditioned media were collected and gelatinolytic activities were analyzed by gelatin zymography as described previously (Maquoi et al, J Biol Chem 2000; 275:11368-78). When HT-1080 cells are activated with a phorbol ester, pro-MMP-2 is activated into MMP-2 (lane 1).

T2 sequence (P51512 120-607): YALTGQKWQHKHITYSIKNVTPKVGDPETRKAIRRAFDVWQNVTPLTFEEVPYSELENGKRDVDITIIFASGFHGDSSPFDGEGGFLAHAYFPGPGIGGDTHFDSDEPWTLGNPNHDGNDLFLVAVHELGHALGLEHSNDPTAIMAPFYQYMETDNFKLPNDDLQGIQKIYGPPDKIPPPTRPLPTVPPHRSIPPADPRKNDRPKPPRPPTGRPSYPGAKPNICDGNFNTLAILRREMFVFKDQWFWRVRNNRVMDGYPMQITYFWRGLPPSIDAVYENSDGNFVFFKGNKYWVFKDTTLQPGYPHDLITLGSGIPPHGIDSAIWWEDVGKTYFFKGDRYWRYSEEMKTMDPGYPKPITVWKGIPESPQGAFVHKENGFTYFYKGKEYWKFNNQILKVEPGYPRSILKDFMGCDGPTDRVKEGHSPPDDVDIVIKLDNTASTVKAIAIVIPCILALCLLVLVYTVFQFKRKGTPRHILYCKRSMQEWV
T3 sequence (Q9Y5R2 156-645): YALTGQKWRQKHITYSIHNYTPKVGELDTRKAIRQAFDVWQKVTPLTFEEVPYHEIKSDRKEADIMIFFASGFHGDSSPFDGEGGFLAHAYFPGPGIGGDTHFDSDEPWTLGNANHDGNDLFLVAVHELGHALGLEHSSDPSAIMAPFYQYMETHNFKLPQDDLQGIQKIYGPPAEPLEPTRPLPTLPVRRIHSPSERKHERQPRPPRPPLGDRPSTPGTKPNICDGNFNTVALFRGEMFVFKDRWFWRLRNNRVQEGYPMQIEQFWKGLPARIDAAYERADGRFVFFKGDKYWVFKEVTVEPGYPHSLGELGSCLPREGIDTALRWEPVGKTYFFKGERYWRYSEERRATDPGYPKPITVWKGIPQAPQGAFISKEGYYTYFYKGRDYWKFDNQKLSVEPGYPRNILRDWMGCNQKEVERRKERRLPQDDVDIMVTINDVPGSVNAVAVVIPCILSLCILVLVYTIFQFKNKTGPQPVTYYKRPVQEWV

Molecule	bind to human MMP-14 (MMP-14 [1])	bind to and inhibit human MMP-14 (MMP-14 [2])	MMP-16 (cross-reactivity, class symbol) (MMP-16 [4]; Fab 100 nM)	MMP-16 (cross-reactivity, class symbol) (MMP-16 [4]; IgG 100 nM)	MMP-16 (cross-reactivity, class symbol) (MMP-16 [5])	MMP-24 inhibition (MMP-24 [6])	MMP-24 (cross-reactivity, class symbol) (MMP-24 [6])	Staining, remark on method [3]	Cross reactivity: inhibition of MMP-16 activity (MMP-16 [7])	Cross reactivity: inhibition of MMP-24 activity (MMP-24 [8])	pro-MMP-2 activation by MMP-14 [9]	pro-MMP-9 expression [9]
M0031-F01: human antibody (Fab, IgG) that binds and inhibits MMP-14; HC SEQ ID NO: 146, LC SEQ ID NO: 147 (antibody, V domains shown, Synthetically generated peptide) VH: EVQLLESGGGLVQPGGSLRLSCAASGFTFSTYEMHWVRQAPGKGLEWVSSIYSSGGWTGYADSVKGRFTISRDNSKNTLYLQMNSLRAEDTAVYYCARSQQYYDFSSRYYGMDVWGQGTTVTVSS VL: QSELTQPPSVSGTPGQRVTISCSGTSANIGRNAVHWYQQLPGTAPKLLIHSNNRRPSGVPDRFSGSKSGTSASLAISGLQSEDEADYYCAAWENSLNAFYVFGTGTKVTVL	bind to human MMP-14	bind to and inhibit human MMP-14	–	–	–	–	–	(only positive in ICC)	–	–	–	–
M0031-C02: human antibody (Fab, IgG) that binds and inhibits MMP-14; HC SEQ ID NO: 144, LC SEQ ID NO: 145 (antibody, V domains shown, Synthetically generated peptide) VH: EVQLLESGGGLVQPGGSLRLSCAASGFTFSPYPMGWVRQAPGKGLEWVSSIVSSGGLTLYADSVKGRFTISRDNSKNTLYLQMNSLRAEDTAVYYCARGGRLYDILTGQGAPFDYWGQGTLVTVSS VL: QDIQMTQSPLSLPVTPGEPASISCRSSQSLLHSNGYYYLDWYLQKPGQSPQLLIYLGSYRASGVPDRFSGSGSGTDFTLKISSVEAEDVGVYYCMQALQTPLTFGGGTRVDIK	bind to human MMP-14	bind to and inhibit human MMP-14	X	X	X	Y 54% inhibition	–	–	–	–	–	–
M0033-H07: human antibody (Fab, IgG) that binds and inhibits MMP-14; HC SEQ ID NO: 148, LC SEQ ID NO: 149 (antibody, V domains shown, Synthetically generated peptide) VH: EVQLLESGGGLVQPGGSLRLSCAASGFTFSVYGMVWVRQAPGKGLEWVSVISSSGGSTWYADSVKGRFTISRDNSKNTLYLQMNSLRAEDTALYYCARPFSRRYGVFDYWGQGTLVTVSS VL: QDIQMTQSPSSLSASVGDRVTITCRASQGIRNFLAWYQQKPGKVPKLLVFGASALQSGVPSRFSGSGSGTDFTLTISGLQPEDVATYYCQKYNGVPLTFGGGTKVEIK	bind to human MMP-14	bind to and inhibit human MMP-14	X	X	X	–	X	–	Y (Inhibition (Y) of activity ranged from approximately 50-80% of the reaction rate observed in the absence of antibody)	Y (Inhibition (Y) of activity ranged from approximately 50-80% of the reaction rate observed in the absence of antibody)	partly inhibited	No stimulation

The next lines start with results.

bind to human MMP-14 (MMP-14 [1])	bind to and inhibit human MMP-14 (MMP-14 [2])	MMP-16 (cross-reactivity, class symbol) (MMP-16 [4]; Fab 100 nM)	MMP-16 (cross-reactivity, class symbol) (MMP-16 [4]; IgG 100 nM)	MMP-16 (cross-reactivity, class symbol) (MMP-16 [5])	MMP-24 inhibition (MMP-24 [6])	MMP-24 (cross-reactivity, class symbol) (MMP-24 [6])	Molecule	Staining, remark on method [3]	Cross reactivity: inhibition of MMP-16 activity (MMP-16 [7])	Cross reactivity: inhibition of MMP-24 activity (MMP-24 [8])	pro-MMP-2 activation by MMP-14 [9]	pro-MMP-9 expression [9]
bind to human MMP-14	bind to and inhibit human MMP-14	X	X	X	Y 72% inhibition	–	M0037-C09: human antibody (Fab, IgG) that binds and inhibits MMP-14; HC SEQ ID NO: 150, LC SEQ ID NO: 151 (antibody, V domains shown, Synthetically generated peptide) VH: EVQLLESGGGLVQPGGSLRLSCAASGFTFSHYEMFWVRQAPGKGLEWVSSISPSGGQTHYADSVKGRFTISRDNSKNTLYLQMNSLRAEDTAVYYCATDRTYYDFWSGYGPLWYWGQGTLVTVSS VL: QDIQMTQSPLSLPVTLGESASVSCRSSQSLLHENGHNYLDWYLQKPGQSPQLLIYLGSNRASGVPDRFSGSGSGTDFTLKISRVEAEDVGVYYCMQSLKTPPTFGPGTKVEIK	–	Y (Inhibition (Y) of activity ranged from approximately 50-80% of the reaction rate observed in the absence of antibody)	Y (Inhibition (Y) of activity ranged from approximately 50-80% of the reaction rate observed in the absence of antibody)	–	–
bind to human MMP-14	bind to and inhibit human MMP-14	X	X	X	Y 71% inhibition	–	M0037-D01: human antibody (Fab, IgG) that binds and inhibits MMP-14; HC SEQ ID NO: 152, LC SEQ ID NO: 153 (antibody, V domains shown, Synthetically generated peptide) VH: EVQLLESGGGLVQPGGSLRLSCAASGFTFSMYMMIWVRQAPGKGLEWVSSIYPSGGNTMYADSVKGRFTISRDNSKNTLYLQMNSLRAEDTAVYYCATGVLRYFDWDAGSGMDVWGQGTTVTVSSLC VL: QDIQMTQSPSSLSASVGDRVTITCRASQGIRNDLGWYQQKPGKAPKRLIYVASSLQSGVPSRFSGSGSGTEFTLTISSLQPEDFATYYCLQHNSYPWTFGQGTKVEIK	–	Y (Inhibition (Y) of activity ranged from approximately 50-80% of the reaction rate observed in the absence of antibody)	Y (Inhibition (Y) of activity ranged from approximately 50-80% of the reaction rate observed in the absence of antibody)	–	–

Reference: patent publication US8106168B2, “Metalloproteinase binding proteins” (Dyax Corp., priority 2005, dated 2012)
